Data reported in paper PMC2553597 (Nucleic Acids Research, 2008).
Where two headings read alike, the source gives them in different places.

B1: dsDNA (oligos 2/2a) (dsDNA)
DNA 1: TGGGTCAACGTGGGCAAAGATGTCCTAGCAATGTAATCGTCTATGACGTT
DNA 2: AACGTCATAGACGATTACATTGCTAGGACATCTTTGCCCACGTTGACCCA
B2: 5'-flapped DNA (oligos 2/8/15) (structured_DNA)
DNA 1: B1 DNA 1
DNA 2: CAACGTCATAGACGATTACATTGCTAATCACTGGCACTGGTAGAATTCGGC
DNA 3: TGCCGAATTCTACCAGTGCCAGTGAT
B3: 3'-PX junction (oligos 2/6/7/10) (structured_DNA)
DNA 1: B1 DNA 1
DNA 2: GTCGGATCCTCTAGACAGCTCCATGATCACTGGCACTGGTAGAATTCGGC
DNA 3: CAACGTCATAGACGATTACATTGCTACATGGAGCTGTCTAGAGGATCCGA
DNA 4: GGACATCTTTGCCCACGTTGACCC
B4: GST-fused DMC1 deletion mutant, amino acid residues 153-214 (fragment VI) (domain or fragment, UniProt Q14565 153-214, looked up)
chain: GGKIIFIDTENTFRPDRLRDIADRFNVDHDAVLDNVLYARAYTSEHQMELLDYVAAKFHEEA
B5: human RAD54B N-terminal fragment, amino acid residues 26-225 (RAD54B_(26–225)) (domain or fragment, UniProt Q9Y620 26-225, looked up)
chain: SNPGLNEEITKLNPDIKLFEGVAINNTFLPSQNDLRICSLNLPSEESTREINNRDNCSGKYCFEAPTLATLDPPHTVHSAPKEVAVSKEQEEKSDSLVKYFSVVWCKPSKKKHKKWEGDAVLIVKGKSFILKNLEGKDIGRGIGYKFKELEKIEEGQTLMICGKEIEVMGVISPDDFSSGRCFQLGGGSTAISHSSQVAR

Legend:
[1] = target: T1, RAD54B26-225 (Homo sapiens, UniProt Q9Y620 26-225); assay: EMSA
T1 sequence: B5 chain

[2] = target: T1, RAD54B26-225; assay: EMSA; remark: listed apart in the source
[3] = target: T1, RAD54B26-225; assay: EMSA; remark: listed apart in the source
[4] = target: T1, RAD54B26-225; assay: EMSA; remark: listed apart in the source
[5] = target: B5; assay: pull-down
[6] = target: the molecule itself; assay: SEC
[7] = target: T2, DMC1 (UniProt Q14565 1-340); assay: pull-down
T2 sequence (looked up): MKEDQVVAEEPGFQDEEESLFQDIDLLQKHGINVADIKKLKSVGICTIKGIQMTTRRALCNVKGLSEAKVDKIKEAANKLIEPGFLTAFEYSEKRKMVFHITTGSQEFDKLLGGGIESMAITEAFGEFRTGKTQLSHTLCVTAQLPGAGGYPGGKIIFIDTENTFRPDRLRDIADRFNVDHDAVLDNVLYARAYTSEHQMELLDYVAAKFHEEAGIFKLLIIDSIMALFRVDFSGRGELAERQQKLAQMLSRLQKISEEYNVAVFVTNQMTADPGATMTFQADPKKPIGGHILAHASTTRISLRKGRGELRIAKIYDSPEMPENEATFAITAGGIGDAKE

AAAAAAAAAAAAAAAAAAAAAAAAAAAAAAAAAAAAAAAAAAAA (ssDNA) [polyA 44-mer]: binds [1].

B1: binds [2].

B2: binds [3].

B3: binds [4].

ASTTRISLRKGRGELRIAKIYDSPEMPENEATFAITAGGIGDAKE (domain or fragment, UniProt Q14565 296-340, looked up) [GST-fused DMC1 deletion mutant, amino acid residues 296-340 (fragment X)]: binds [5].

B4: binds [5].

With B5 the “stoichiometry N” value [6] was 2 and the binding result [7] was “binds”.
